Test results published in article PMC7902612, “A synergetic effect of BARD1 mutations on tumorigenesis” (Nature Communications, 2021).

Molecular target: T1, GST-BRCA1-N (N-terminal of BRCA1, 1-147 aa) (human, UniProt P38398 1-147)
T1 construct: BRCA1, human, N-terminal residues 1-147; Cloned into pGEX-4T-1, which as far as I know puts GST at the N-terminus; also called recombinant BRCA1-N
Assay: MST; RED-NHS-labelled GST-BARD1-N or GST-BARD1^P24S-N at constant concentration (10-50 nM), twofold serial dilutions of GST-BRCA1-N; 50 mM Tris-HCl pH 7.4, 150 mM NaCl, 10 mM MgCl2, 0.05% Tween 20; 15 min at room temperature; Monolith NT.115, 20% and 40% MST power
Settings: both partners purified

T1 sequence (P38398 1-147): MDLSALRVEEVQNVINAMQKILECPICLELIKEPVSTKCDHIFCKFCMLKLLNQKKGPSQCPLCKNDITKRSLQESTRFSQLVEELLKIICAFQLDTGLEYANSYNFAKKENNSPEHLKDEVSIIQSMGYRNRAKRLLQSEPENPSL

B1: GST-BARD1-N (N-terminal of BARD1, 1-142 aa) (domain or fragment, human, UniProt Q99728 1-142, looked up)
chain: MPDNRQPRNRQPRIRSGNEPRSAPAMEPDGRGAWAHSRAALDRLEKLLRCSRCTNILREPVCLGGCEHIFCSNCVSDCIGTGCPVCYTPAWIQDLKINRQLDSMIQLCSKLRNLLHDNELSDLKEDKPRKSLFNDAGNKKNS
modifications: fluorescent label from the RED-NHS protein labeling kit (NanoTemper)
notes: BRCA1-associated RING-domain protein 1 (BARD1), human, N-terminal residues 1-142; Cloned into pGEX-4T-1, which as far as I know puts GST at the N-terminus
Kd: 890 nM
